In PMC4464295, “Orthogonal dual-modification of proteins for the engineering of multivalent protein scaffolds” (Beilstein Journal of Organic Chemistry, 2015):
Values belong to the binder of their own block, whether it stands above or below them.

Target: T1, Erythrina cristagalli lectin (Erythrina cristagalli, UniProt P83410 1-239)
T1 construct: also called ECL
T1 sequence (looked up): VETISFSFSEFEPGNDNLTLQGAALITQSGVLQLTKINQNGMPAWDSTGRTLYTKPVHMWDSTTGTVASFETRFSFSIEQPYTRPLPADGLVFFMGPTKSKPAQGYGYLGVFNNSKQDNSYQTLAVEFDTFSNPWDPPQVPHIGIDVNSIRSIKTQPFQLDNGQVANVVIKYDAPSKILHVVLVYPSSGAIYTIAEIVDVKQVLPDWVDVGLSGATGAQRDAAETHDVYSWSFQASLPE
Assay: SPR; BiacoreX; biotinylated TTL sample on streptavidin chip loaded to one third; at least five ECL concentrations (Gal-0 once at 100 µM ECL); equilibrium binding, Langmuir isotherm fit; KDs determined twice
Conditions: both partners purified

- Kd: 70 µM
B1: Biotinylated thermophilic lipase from Thermoanaerobacter thermohydrosulfuricus with azidohomoalanine, carrying 1-2 galactose units (Gal-1) (enzyme)
chain: SQKAVEITYNGKTLRGMMHLPDDVKGKVPMVIMFHGFTGNKVESHFIFVKMSRALEKVGIGSVRFDFYGSGESDGDFSEMTFSSELEDARQILKFVKEQPTTDPERIGLLGLSMGGAIAGIVAREYKDEIKALVLWAPAFNMPELIMHESVKQYGAIMEQLGFVDIGGHKLSKDFVEDISKLNIFELSKGYDKKVLIVHGTNDEAVEYKVSDRILKEVYGDNATRVTIENADHTFKSLEWEKKAIEESVEFFKKELLKG
modifications: all Met replaced by azidohomoalanine (Aha), nine Aha residues; N-terminal Met/Aha excised; N-terminal Ser (Ser2) oxidised with NaIO4 to the aldehyde and joined to biotin hydroxylamine 1 by oxime ligation; 1-2 Aha residues joined to butynyl galactose 2 by CuAAC (positions not given)

- Kd: 60 µM
B2: Biotinylated thermophilic lipase from Thermoanaerobacter thermohydrosulfuricus with azidohomoalanine, carrying 3-4 galactose units (Gal-3) (enzyme)
chain: B1 chain
modifications: all Met replaced by azidohomoalanine (Aha), nine Aha residues; N-terminal Met/Aha excised; N-terminal Ser (Ser2) oxidised with NaIO4 to the aldehyde and joined to biotin hydroxylamine 1 by oxime ligation; 3-4 Aha residues joined to butynyl galactose 2 by CuAAC (positions not given; two found by MS/MS, Table S5)
